{"source": "patent US20230322953A1", "about": "(HARBOUR BIOMED SHANGHAI, published 2023)", "data": [{"target": "T1, human CD3 (TCR/CD3 complex) on human T cells (human, UniProt P07766 23-207)", "T1 construct": "whole, on cells", "T1 sequence (P07766 23-207, one chain of several)": "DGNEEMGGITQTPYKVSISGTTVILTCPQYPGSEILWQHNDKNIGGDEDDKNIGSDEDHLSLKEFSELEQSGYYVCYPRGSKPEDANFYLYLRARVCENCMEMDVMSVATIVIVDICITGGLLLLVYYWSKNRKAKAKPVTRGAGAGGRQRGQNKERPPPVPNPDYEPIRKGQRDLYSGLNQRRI", "assay": "flow cytometry (FACS) on human T cells, Experiment 1", "units": {"Maximum MFI": "MFI"}, "description": "(§1) The binding ability of the antibody molecules to human or cynomolgus monkey T cells was tested by flow cytometry FACS. […] The T cell density was adjusted to 1×10⁶ cells/mL. […] The cells were incubated at 4° C. for 1 h away from light. Then, the cells in each well were rinsed twice with 100 μL of pre-cooled PBS, and centrifuged at 500 g at 4° C. for 5 min, and then the supernatant was discarded. […] The cells in each well were rinsed twice with 100 μL of pre-cooled PBS, and centrifuged at 500 g at 4° C. for 5 min, and then the supernatant was discarded. Finally, the cells in each well were resuspended in 200 μL of pre-cooled PBS. Fluorescence signal values were read using a BD FACS CANTOII flow cytometer or an ACEA NovoCyte flow cytometer, and the data were processed and analyzed using FlowJo v10 (FlowJo, LLC) software. The data were processed and analyzed by plotting using GraphPad Prism 8 software, and binding curves of the antibodies to target cells, EC₅₀ values and other parameters were obtained through four-parameter nonlinear fitting.", "values": [{"binder": "PR001992 (bispecific antibody, human IgG1, kappa, L234A L235A, Structure 12 (Fab(cross VH/VL)-Fc-VH): CD3 Fab from PR000511, BCMA VH from PR000943; IgG1 knob/hole, AAG) chain 1: EVQLLESGGGLVQPGGSLRLSCAASGFTFNTYAMNWVRQAPGKGLEWVSRIRSKYNNYATYYADSVKDRFTISRDDSKSTLYLQMNSLRAEDTAVYYCVRHGNFGNSYVSWFAYWGQGTLVTVSSRTVAAPSVFIFPPSDEQLKSGTASVVCLLNNFYPREAKVQWKVDNALQSGNSQESVTEQDSKDSTYSLSSTLTLSKADYEKHKVYACEVTHQGLSSPVTKSFNRGEC chain 2: QAVVTQEPSLTVSPGGTVTLTCRSSTGAVTTSNYANWVQQKPGQAPRGLIGGTNKRAPWTPARFSGSLLGDKAALTLLGAQPEDEAEYFCALWYSNLWVFGGGTKLTVLSSASTKGPSVFPLAPSSKSTSGGTAALGCLVKDYFPEPVTVSWNSGALTSGVHTFPAVLQSSGLYSLSSVVTVPSSSLGTQTYICNVNHKPSNTKVDKKVEPKSCDKTHTCPPCPAPEAAGGPSVFLFPPKPKDTLMISRTPEVTCVVVDVSHEDPEVKFNWYVDGVEVHNAKTKPREEQYNSTYRVVSVLTVLHQDWLNGKEYKCKVSNKALGAPIEKTISKAKGQPREPQVYTLPPCREEMTKNQVSLWCLVKGFYPSDIAVEWESNGQPENNYKTTPPVLDSDGSFFLYSKLTVDKSRWQQGNVFSCSVMHEALHNHYTQKSLSLSPGK chain 3: EVQLVETGGGLIQPGGSLRLSCAASGFPVSSNYMSWVRQAPGKGLEWVSVIFSGGRTYYADSVKGRFTISRDNSKNTLYLQMNSLRAEDTAVYYCARRNWIDGRDAFDIWGQGTMVTVSSASEPKSSDKTHTCPPCPAPEAAGGPSVFLFPPKPKDTLMISRTPEVTCVVVDVSHEDPEVKFNWYVDGVEVHNAKTKPREEQYNSTYRVVSVLTVLHQDWLNGKEYKCKVSNKALGAPIEKTISKAKGQPREPQVCTLPPSREEMTKNQVSLSCAVKGFYPSDIAVEWESNGQPENNYKTTPPVLDSDGSFFLVSKLTVDKSRWQQGNVFSCSVMHEALHNHYTQKSLSLSPGK", "Maximum MFI": 2240}, {"binder": "PR001994 (bispecific antibody, human IgG1, kappa, L234A L235A, Structure 12 (Fab(cross VH/VL)-Fc-VH): CD3 Fab from PR000511, BCMA VH from PR001046; IgG1 knob/hole, AAG) chain 1: EVQLLESGGGLVQPGGSLRLSCAASGFTFNTYAMNWVRQAPGKGLEWVSRIRSKYNNYATYYADSVKDRFTISRDDSKSTLYLQMNSLRAEDTAVYYCVRHGNFGNSYVSWFAYWGQGTLVTVSSRTVAAPSVFIFPPSDEQLKSGTASVVCLLNNFYPREAKVQWKVDNALQSGNSQESVTEQDSKDSTYSLSSTLTLSKADYEKHKVYACEVTHQGLSSPVTKSFNRGEC chain 2: QAVVTQEPSLTVSPGGTVTLTCRSSTGAVTTSNYANWVQQKPGQAPRGLIGGTNKRAPWTPARFSGSLLGDKAALTLLGAQPEDEAEYFCALWYSNLWVFGGGTKLTVLSSASTKGPSVFPLAPSSKSTSGGTAALGCLVKDYFPEPVTVSWNSGALTSGVHTFPAVLQSSGLYSLSSVVTVPSSSLGTQTYICNVNHKPSNTKVDKKVEPKSCDKTHTCPPCPAPEAAGGPSVFLFPPKPKDTLMISRTPEVTCVVVDVSHEDPEVKFNWYVDGVEVHNAKTKPREEQYNSTYRVVSVLTVLHQDWLNGKEYKCKVSNKALGAPIEKTISKAKGQPREPQVYTLPPCREEMTKNQVSLWCLVKGFYPSDIAVEWESNGQPENNYKTTPPVLDSDGSFFLYSKLTVDKSRWQQGNVFSCSVMHEALHNHYTQKSLSLSPGK chain 3: EVQLVETGGGLIQPGGSLRLSCAASGFTVSDNYMTWVRQAPGKGLEWVSVIFSGGNTYYADSVKGRFTISRDNAKNTLYLQMNSLRAEDTALYYCARRNYDDTRGTDVFDIWGQGTMVTVSSASEPKSSDKTHTCPPCPAPEAAGGPSVFLFPPKPKDTLMISRTPEVTCVVVDVSHEDPEVKFNWYVDGVEVHNAKTKPREEQYNSTYRVVSVLTVLHQDWLNGKEYKCKVSNKALGAPIEKTISKAKGQPREPQVCTLPPSREEMTKNQVSLSCAVKGFYPSDIAVEWESNGQPENNYKTTPPVLDSDGSFFLVSKLTVDKSRWQQGNVFSCSVMHEALHNHYTQKSLSLSPGK", "Maximum MFI": 3380}, {"binder": "PR001993 (bispecific antibody, human IgG1, kappa, L234A L235A, Structure 12 (Fab(cross VH/VL)-Fc-VH): CD3 Fab from PR000511, BCMA VH from PR001035; IgG1 knob/hole, AAG) chain 1: EVQLLESGGGLVQPGGSLRLSCAASGFTFNTYAMNWVRQAPGKGLEWVSRIRSKYNNYATYYADSVKDRFTISRDDSKSTLYLQMNSLRAEDTAVYYCVRHGNFGNSYVSWFAYWGQGTLVTVSSRTVAAPSVFIFPPSDEQLKSGTASVVCLLNNFYPREAKVQWKVDNALQSGNSQESVTEQDSKDSTYSLSSTLTLSKADYEKHKVYACEVTHQGLSSPVTKSFNRGEC chain 2: QAVVTQEPSLTVSPGGTVTLTCRSSTGAVTTSNYANWVQQKPGQAPRGLIGGTNKRAPWTPARFSGSLLGDKAALTLLGAQPEDEAEYFCALWYSNLWVFGGGTKLTVLSSASTKGPSVFPLAPSSKSTSGGTAALGCLVKDYFPEPVTVSWNSGALTSGVHTFPAVLQSSGLYSLSSVVTVPSSSLGTQTYICNVNHKPSNTKVDKKVEPKSCDKTHTCPPCPAPEAAGGPSVFLFPPKPKDTLMISRTPEVTCVVVDVSHEDPEVKFNWYVDGVEVHNAKTKPREEQYNSTYRVVSVLTVLHQDWLNGKEYKCKVSNKALGAPIEKTISKAKGQPREPQVYTLPPCREEMTKNQVSLWCLVKGFYPSDIAVEWESNGQPENNYKTTPPVLDSDGSFFLYSKLTVDKSRWQQGNVFSCSVMHEALHNHYTQKSLSLSPGK chain 3: EVQLVETGGGLIQPGGSLRLSCAASGFTVSSNYMTWVRQAPGKGLEWVSVIFSGGSTYYADSVKGRFTISRDNSKNTLYLQMNSLRAEDTAVYYCARRIAVAGHDVFDIWGQGTMVTVSSASEPKSSDKTHTCPPCPAPEAAGGPSVFLFPPKPKDTLMISRTPEVTCVVVDVSHEDPEVKFNWYVDGVEVHNAKTKPREEQYNSTYRVVSVLTVLHQDWLNGKEYKCKVSNKALGAPIEKTISKAKGQPREPQVCTLPPSREEMTKNQVSLSCAVKGFYPSDIAVEWESNGQPENNYKTTPPVLDSDGSFFLVSKLTVDKSRWQQGNVFSCSVMHEALHNHYTQKSLSLSPGK", "Maximum MFI": 4780}, {"binder": "PR001991 (bispecific antibody, human IgG1, kappa, L234A L235A, CD3 Fab from PR000511, BCMA VH from PR000940; IgG1 knob/hole, AAG) chain 1: EVQLLESGGGLVQPGGSLRLSCAASGFTFNTYAMNWVRQAPGKGLEWVSRIRSKYNNYATYYADSVKDRFTISRDDSKSTLYLQMNSLRAEDTAVYYCVRHGNFGNSYVSWFAYWGQGTLVTVSSRTVAAPSVFIFPPSDEQLKSGTASVVCLLNNFYPREAKVQWKVDNALQSGNSQESVTEQDSKDSTYSLSSTLTLSKADYEKHKVYACEVTHQGLSSPVTKSFNRGEC chain 2: QAVVTQEPSLTVSPGGTVTLTCRSSTGAVTTSNYANWVQQKPGQAPRGLIGGTNKRAPWTPARFSGSLLGDKAALTLLGAQPEDEAEYFCALWYSNLWVFGGGTKLTVLSSASTKGPSVFPLAPSSKSTSGGTAALGCLVKDYFPEPVTVSWNSGALTSGVHTFPAVLQSSGLYSLSSVVTVPSSSLGTQTYICNVNHKPSNTKVDKKVEPKSCDKTHTCPPCPAPEAAGGPSVFLFPPKPKDTLMISRTPEVTCVVVDVSHEDPEVKFNWYVDGVEVHNAKTKPREEQYNSTYRVVSVLTVLHQDWLNGKEYKCKVSNKALGAPIEKTISKAKGQPREPQVYTLPPCREEMTKNQVSLWCLVKGFYPSDIAVEWESNGQPENNYKTTPPVLDSDGSFFLYSKLTVDKSRWQQGNVFSCSVMHEALHNHYTQKSLSLSPGK chain 3: EVQLLESGGGLVQPGGSLRLSCAASGFTFSSYAMIWVRQAPGKGLEWVSGISESGGSTYYADSVKGRFTISRDNSKNTLYLQMNSLRAEDTAVYFCVKDLDDILTGYYKDYWGQGTLVTVSSASEPKSSDKTHTCPPCPAPEAAGGPSVFLFPPKPKDTLMISRTPEVTCVVVDVSHEDPEVKFNWYVDGVEVHNAKTKPREEQYNSTYRVVSVLTVLHQDWLNGKEYKCKVSNKALGAPIEKTISKAKGQPREPQVCTLPPSREEMTKNQVSLSCAVKGFYPSDIAVEWESNGQPENNYKTTPPVLDSDGSFFLVSKLTVDKSRWQQGNVFSCSVMHEALHNHYTQKSLSLSPGK", "Maximum MFI": 3240}]}, {"target": "T1, human CD3 (TCR/CD3 complex) on human T …", "assay": "flow cytometry (FACS) on human T cells, Experiment 2", "units": {"Maximum MFI": "MFI"}, "description": "as §1", "values": [{"binder": "PR001995 (bispecific antibody, IgG1, CD3 Fab from PR000511, BCMA VH from PR000940; IgG1 knob/hole, AAG) chain 1: EVQLLESGGGLVQPGGSLRLSCAASGFTFNTYAMNWVRQAPGKGLEWVSRIRSKYNNYATYYADSVKDRFTISRDDSKSTLYLQMNSLRAEDTAVYYCVRHGNFGNSYVSWFAYWGQGTLVTVSSASTKGPSVFPLAPSSKSTSGGTAALGCLVKDYFPEPVTVSWNSGALTSGVHTFPAVLQSSGLYSLSSVVTVPSSSLGTQTYICNVNHKPSNTKVDKKVEPKSC chain 2: QAVVTQEPSLTVSPGGTVTLTCRSSTGAVTTSNYANWVQQKPGQAPRGLIGGTNKRAPWTPARFSGSLLGDKAALTLLGAQPEDEAEYFCALWYSNLWVFGGGTKLTVLGQPKAAPSVTLFPPSSEELQANKATLVCLISDFYPGAVTVAWKADSSPVKAGVETTTPSKQSNNKYAASSYLSLTPEQWKSHRSYSCQVTHEGSTVEKTVAPTECSDKTHTCPPCPAPEAAGGPSVFLFPPKPKDTLMISRTPEVTCVVVDVSHEDPEVKFNWYVDGVEVHNAKTKPREEQYNSTYRVVSVLTVLHQDWLNGKEYKCKVSNKALGAPIEKTISKAKGQPREPQVYTLPPCREEMTKNQVSLWCLVKGFYPSDIAVEWESNGQPENNYKTTPPVLDSDGSFFLYSKLTVDKSRWQQGNVFSCSVMHEALHNHYTQKSLSLSPGK chain 3: EVQLLESGGGLVQPGGSLRLSCAASGFTFSSYAMIWVRQAPGKGLEWVSGISESGGSTYYADSVKGRFTISRDNSKNTLYLQMNSLRAEDTAVYFCVKDLDDILTGYYKDYWGQGTLVTVSSASEPKSSDKTHTCPPCPAPEAAGGPSVFLFPPKPKDTLMISRTPEVTCVVVDVSHEDPEVKFNWYVDGVEVHNAKTKPREEQYNSTYRVVSVLTVLHQDWLNGKEYKCKVSNKALGAPIEKTISKAKGQPREPQVCTLPPSREEMTKNQVSLSCAVKGFYPSDIAVEWESNGQPENNYKTTPPVLDSDGSFFLVSKLTVDKSRWQQGNVFSCSVMHEALHNHYTQKSLSLSPGK", "Maximum MFI": 2920}, {"binder": "PR001996 (bispecific antibody, IgG1, Structure 13 (Fab(cross Fd/LC)-Fc-VH): CD3 Fab from PR000511, BCMA VH from PR000943; IgG1 knob/hole, AAG) chain 1: EVQLLESGGGLVQPGGSLRLSCAASGFTFNTYAMNWVRQAPGKGLEWVSRIRSKYNNYATYYADSVKDRFTISRDDSKSTLYLQMNSLRAEDTAVYYCVRHGNFGNSYVSWFAYWGQGTLVTVSSASTKGPSVFPLAPSSKSTSGGTAALGCLVKDYFPEPVTVSWNSGALTSGVHTFPAVLQSSGLYSLSSVVTVPSSSLGTQTYICNVNHKPSNTKVDKKVEPKSC chain 2: QAVVTQEPSLTVSPGGTVTLTCRSSTGAVTTSNYANWVQQKPGQAPRGLIGGTNKRAPWTPARFSGSLLGDKAALTLLGAQPEDEAEYFCALWYSNLWVFGGGTKLTVLGQPKAAPSVTLFPPSSEELQANKATLVCLISDFYPGAVTVAWKADSSPVKAGVETTTPSKQSNNKYAASSYLSLTPEQWKSHRSYSCQVTHEGSTVEKTVAPTECSDKTHTCPPCPAPEAAGGPSVFLFPPKPKDTLMISRTPEVTCVVVDVSHEDPEVKFNWYVDGVEVHNAKTKPREEQYNSTYRVVSVLTVLHQDWLNGKEYKCKVSNKALGAPIEKTISKAKGQPREPQVYTLPPCREEMTKNQVSLWCLVKGFYPSDIAVEWESNGQPENNYKTTPPVLDSDGSFFLYSKLTVDKSRWQQGNVFSCSVMHEALHNHYTQKSLSLSPGK chain 3: EVQLVETGGGLIQPGGSLRLSCAASGFPVSSNYMSWVRQAPGKGLEWVSVIFSGGRTYYADSVKGRFTISRDNSKNTLYLQMNSLRAEDTAVYYCARRNWIDGRDAFDIWGQGTMVTVSSASEPKSSDKTHTCPPCPAPEAAGGPSVFLFPPKPKDTLMISRTPEVTCVVVDVSHEDPEVKFNWYVDGVEVHNAKTKPREEQYNSTYRVVSVLTVLHQDWLNGKEYKCKVSNKALGAPIEKTISKAKGQPREPQVCTLPPSREEMTKNQVSLSCAVKGFYPSDIAVEWESNGQPENNYKTTPPVLDSDGSFFLVSKLTVDKSRWQQGNVFSCSVMHEALHNHYTQKSLSLSPGK", "Maximum MFI": 3440}]}]}
